Columns and labels:
[1] = biological target: A. fulgidus humanized ferritin (chimeric ferritin: Archaeoglobus fulgidus ferritin with a grafted surface loop of human H ferritin) (Archaeoglobus fulgidus); experiment: SEC; HP-SEC of the HumFt-G4 PAMAM/FITC nanoparticle; mobile phase 20 mM HEPES pH 7.4 with 50 mM MgCl2; UV 220 nm and fluorescence; dimers to 24-mer
[2] = biological target: A. fulgidus humanized ferritin (chimeric ferritin: Archaeoglobus fulgidus ferritin with a grafted surface loop of human H ferritin) (Archaeoglobus fulgidus); experiment: SEC; HP-SEC, no MgCl2; open HumFt 5 mg/mL (10 uM 24-mer) added to G3, G4 or G5 PAMAM at HumFt:PAMAM 1:10, 1:20, 1:30; mobile phase 20 mM HEPES pH 7.4; UV 220 nm; dimers to 24-mer
[3] = biological target: A. fulgidus humanized ferritin (chimeric ferritin: Archaeoglobus fulgidus ferritin with a grafted surface loop of human H ferritin) (Archaeoglobus fulgidus); experiment: SEC; HP-SEC of the HumFt-PAMAM nanoparticle after up to 24 h at 37 °C in 20 mM HEPES with 50 mM MgCl2, in PBS, or in RPMI 1640 with 10% FCS
[4] = biological target: A. fulgidus humanized ferritin (chimeric ferritin: Archaeoglobus fulgidus ferritin with a grafted surface loop of human H ferritin) (Archaeoglobus fulgidus); experiment: negative staining electron microscopy; TEM, HumFt 0.02 mg/mL in HEPES buffer without magnesium ions; 2% uranyl acetate or 4% ammonium molybdate
[5] = biological target: A. fulgidus humanized ferritin (chimeric ferritin: Archaeoglobus fulgidus ferritin with a grafted surface loop of human H ferritin) (Archaeoglobus fulgidus); experiment: negative staining electron microscopy; TEM, HumFt 0.02 mg/mL with 50 mM Mg2+ and/or G4 PAMAM; 2% uranyl acetate or 4% ammonium molybdate
[6] = biological target: A. fulgidus humanized ferritin (chimeric ferritin: Archaeoglobus fulgidus ferritin with a grafted surface loop of human H ferritin) (Archaeoglobus fulgidus); experiment: SEC; HP-SEC of HumFt with divalent cations only (no PAMAM); dimers to 24-mer

percent dimeric form [1]: < 2% | stoichiometry N [1]: 24 | stoichiometry N [2]: 24 | percent 24-mer [3]: > 95% | stoichiometry N [4]: 2 | stoichiometry N [5]: 24 | percent dimeric form [6]: 10 to 15%
Substance: A. fulgidus humanized ferritin (chimeric ferritin: Archaeoglobus fulgidus ferritin with a grafted surface loop of human H ferritin)
